Laboratory results as given in patent US20240124563A1 (NANJING ZAIMING PHARMACEUTICAL, published 2024).

Legend:
[1] = biological target: T1, human MSLN-R1-his protein (human, UniProt Q13421 296-390); experiment: ELISA, antibody 1 nM
T1 construct: MSLN-R1 = Glu296-Thr390; also called hMSLN-R1-his; not shown: histidine tag
T1 chain: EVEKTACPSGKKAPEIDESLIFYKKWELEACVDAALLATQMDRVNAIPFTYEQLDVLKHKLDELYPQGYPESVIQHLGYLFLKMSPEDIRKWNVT

[2] = biological target: T1, human MSLN-R1-his protein; experiment: ELISA, antibody 10 nM
[3] = biological target: T2, human MSLN-R3-his protein (human, UniProt Q13421 487-598); experiment: ELISA, antibody 10 nM
T2 construct: MSLN-R3 = Met487-Ser598; also called hMSLN-R3-his; not shown: histidine tag
T2 sequence (Q13421 495-606): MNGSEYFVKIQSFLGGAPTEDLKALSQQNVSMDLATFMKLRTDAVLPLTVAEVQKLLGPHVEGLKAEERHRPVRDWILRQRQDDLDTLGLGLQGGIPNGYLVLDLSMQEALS

[4] = biological target: T2, human MSLN-R3-his protein; experiment: ELISA, antibody 100 nM
[5] = biological target: T1, human MSLN-R1-his protein; experiment: ELISA, antibody 0.01 nM
[6] = biological target: T2, human MSLN-R3-his protein; experiment: ELISA, antibody 0.001 nM
[7] = biological target: T1, human MSLN-R1-his protein; experiment: ELISA, antibody 0.0001 nM
[8] = biological target: T2, human MSLN-R3-his protein; experiment: ELISA, antibody 0.0001 nM
[9] = biological target: T3, human MSLN-FL-his protein (human, UniProt Q13421 296-580); experiment: competitive ELISA on MSLN-FL-His; other antibody: NB148-25 (3.m2)
T3 construct: Made in HEK293E cells, purified on nickel column; also called hMSLN-FL-his; not shown: histidine tag

[10] = biological target: T3, human MSLN-FL-his protein; experiment: competitive ELISA on MSLN-FL-His; other antibody: NB148-35 (3.m4)
[11] = biological target: T3, human MSLN-FL-his protein; experiment: competitive ELISA on MSLN-FL-His; other antibody: NB148-88 (3.m6)
[12] = biological target: T3, human MSLN-FL-his protein; experiment: competitive ELISA on MSLN-FL-His; other antibody: NB149-70 (3.m9)
[13] = biological target: T3, human MSLN-FL-his protein; experiment: competitive ELISA on MSLN-FL-His; other antibody: NB149-95 (3.m11)

OD450 nm [1]: 0.05 | OD450 nm [2]: 0.06 | OD450 nm [3]: 0.05 | OD450 nm [4]: 0.09 | OD450 nm [5]: 0.06 | OD450 nm [6]: 0.05 | OD450 nm [7]: 0.04 | OD450 nm [8]: 0.05 | inhibition rate [9]: 23% | inhibition rate [10]: 26% | inhibition rate [11]: 4% | inhibition rate [12]: -10% | inhibition rate [13]: -5%
B1: Tab107 (YP3, hIgG1) (antibody, V domains shown)
VH: QEQLVESGGGLVQPGASLTLTCTASGIDFSRYYMCWVRQAPGKGLEGIACIYIGGSGSTYYASWAKGRFTISKASSTTVTLQMTSLTAADTATYFCARGTNLNYIFRLWGPGTLVTVSS
VL: DVVMTQTPSPVSAAVGGTVTIKCQASQSINNGLAWYQQKPGQPPRLLIYSASNLESGVPSRFKGSGSGTEFTLTISDLECDDAATYYCQCIWDGNSYVNAFGGGTEVVVRT
notes: also called YP3 human IgG1 antibody
